In US20260250421A1 (BIOCYTOGEN PHARMACEUTICALS BEIJING, published 2026):

B1: 3C4 (antibody, V domains shown)
VH: QVQLEQSRAEVKKPGESLRISCKGSGYSFTSYWISWVRQMPGKGLEWMGRIDPSDSYTNYNPSFQGHVTISADKSISTAYLQWSSLKASDTAMYYCARRDGSYFDFDYWGQGTLVTVSS
VL: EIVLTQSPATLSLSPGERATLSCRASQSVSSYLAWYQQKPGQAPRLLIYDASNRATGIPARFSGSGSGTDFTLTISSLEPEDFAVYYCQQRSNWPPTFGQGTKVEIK
notes: also called anti-PTK7 antibody 3C4
B2: 3E6 (antibody, V domains shown)
VH: QVQLVESGAEVKKPGESLRISCRGSGYSFTSYWISWVRQMPGKGLEWMGRIDPSDSYTKYSPSFQGHVTISADKSISTAYLQWSSLKASDTAMYYCARRDGDYFDFDYWGQGTLVTVSS
VL: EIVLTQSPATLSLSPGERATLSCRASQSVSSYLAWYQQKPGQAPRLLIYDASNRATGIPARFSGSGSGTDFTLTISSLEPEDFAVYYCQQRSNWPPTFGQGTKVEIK
notes: also called anti-PTK7 antibody 3E6
B3: 1F2 (antibody, V domains shown)
VH: QVQLVQSGGGLVQPGGSLRLSCAASGFTFSRYEMNWVRQAPGKGLEWVSYINSIGSAINYADSVKGRFTISRDNAKNSLYLQMRSLRAEDTAVYYCVREDNWNPGYWGQGTLVTVSS
VL: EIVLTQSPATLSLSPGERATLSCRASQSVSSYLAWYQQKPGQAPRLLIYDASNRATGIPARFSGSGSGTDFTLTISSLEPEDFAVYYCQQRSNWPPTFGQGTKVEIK
notes: also called anti-PTK7 antibody 1F2
B4: 1A11 (antibody, V domains shown)
VH: QVQLVQSGPGLVKPSETLSLTCTVSGGSINSYYWNWIRQPPGKGLEWIGYIYYSGSTNYNPSLKSRVTISVDTSKNQFSLKLSSVTAADTAVYYCARDPHDYIRGHFDLWGRGTLFTVSS
VL: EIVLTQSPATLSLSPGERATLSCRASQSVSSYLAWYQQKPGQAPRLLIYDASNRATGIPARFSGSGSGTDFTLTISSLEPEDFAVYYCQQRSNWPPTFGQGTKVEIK
notes: also called anti-PTK7 antibody 1A11
B5: 1A7 (antibody, human IgG1, V domains shown)
VH: QVQLVESGGGVVQPGRSLRLSCAASGFTFSNYGMHWVRQAPGKGLEWVAVIYYDGSNKFYADSVKGRFTISRDNSKNTLYLQMSSLRAEDTAVYYCARDVAPPGSRAEYFHHWGQGTLVTVSS
VL: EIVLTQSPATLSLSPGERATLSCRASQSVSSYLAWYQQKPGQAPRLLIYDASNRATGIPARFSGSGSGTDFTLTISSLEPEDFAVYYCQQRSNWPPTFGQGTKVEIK
notes: also called anti-PTK7 antibody 1A7
B6: 2A5 (antibody, V domains shown)
VH: QVQLVQSGGGVVQPGRSLRLSCAASGFTFSNYGMHWVRQAPGKGLEWVAVIWYDGRNKYYADSVKGRFTISRDNSKNTLYLQMNSLRAEDTAVYYCARDVAPAGSRAEYFQNWGQGTLVTVSS
VL: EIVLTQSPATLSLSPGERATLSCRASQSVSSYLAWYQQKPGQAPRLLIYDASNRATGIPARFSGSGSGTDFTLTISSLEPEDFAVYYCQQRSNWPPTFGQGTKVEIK
notes: also called anti-PTK7 antibody 2A5
B7: 2D11 (antibody, V domains shown)
VH: QVQLVESGGGVVQPGRSLRLSCAASGFTFSSYGMHWVRQAPGKGLEWVAVIFYDGSNKYYADSVKGRFTISRDNSKNTLYLQMNSLRAEDTSVYYCARDVAAPGSRAEYFQNWGQGTLVTVSS
VL: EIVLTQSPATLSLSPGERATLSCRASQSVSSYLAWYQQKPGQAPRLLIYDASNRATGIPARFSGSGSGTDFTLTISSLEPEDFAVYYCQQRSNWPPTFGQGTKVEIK
notes: also called anti-PTK7 antibody 2D11
B8: 2F5 (antibody, V domains shown)
VH: QVQLVESGGGVVQPGRSLRLSCVASGFTFSNYGMHWVRQAPGKGLEWVAIIYYDGSNKYYADSVKGRFTISRDNSKNTLYLQMNSLRAEDTAVYYCARDVAAAGSRAEYLHHWGQGTLVTVSS
VL: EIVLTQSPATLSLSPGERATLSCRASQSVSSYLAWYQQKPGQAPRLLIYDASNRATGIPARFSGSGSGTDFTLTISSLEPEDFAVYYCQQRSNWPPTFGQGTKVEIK
notes: also called anti-PTK7 antibody 2F5

Key:
[1] = molecular target: T1, human PTK7 on human cancer cell lines (human, UniProt Q13308 31-1070); assay: flow cytometry, NCI-H226 cells, Ab 5 ug/mL
T1 construct: Endogenous PTK7 of human tumour cell lines; also called PTK7 on A-431, NCI-H520, NCI-N87, SK-OV-3, BT-20, HCC1954, NCI-H226, NCI-H358, HCT116, PC-3, NCI-H292, NCI-H1975 cells
T1 sequence: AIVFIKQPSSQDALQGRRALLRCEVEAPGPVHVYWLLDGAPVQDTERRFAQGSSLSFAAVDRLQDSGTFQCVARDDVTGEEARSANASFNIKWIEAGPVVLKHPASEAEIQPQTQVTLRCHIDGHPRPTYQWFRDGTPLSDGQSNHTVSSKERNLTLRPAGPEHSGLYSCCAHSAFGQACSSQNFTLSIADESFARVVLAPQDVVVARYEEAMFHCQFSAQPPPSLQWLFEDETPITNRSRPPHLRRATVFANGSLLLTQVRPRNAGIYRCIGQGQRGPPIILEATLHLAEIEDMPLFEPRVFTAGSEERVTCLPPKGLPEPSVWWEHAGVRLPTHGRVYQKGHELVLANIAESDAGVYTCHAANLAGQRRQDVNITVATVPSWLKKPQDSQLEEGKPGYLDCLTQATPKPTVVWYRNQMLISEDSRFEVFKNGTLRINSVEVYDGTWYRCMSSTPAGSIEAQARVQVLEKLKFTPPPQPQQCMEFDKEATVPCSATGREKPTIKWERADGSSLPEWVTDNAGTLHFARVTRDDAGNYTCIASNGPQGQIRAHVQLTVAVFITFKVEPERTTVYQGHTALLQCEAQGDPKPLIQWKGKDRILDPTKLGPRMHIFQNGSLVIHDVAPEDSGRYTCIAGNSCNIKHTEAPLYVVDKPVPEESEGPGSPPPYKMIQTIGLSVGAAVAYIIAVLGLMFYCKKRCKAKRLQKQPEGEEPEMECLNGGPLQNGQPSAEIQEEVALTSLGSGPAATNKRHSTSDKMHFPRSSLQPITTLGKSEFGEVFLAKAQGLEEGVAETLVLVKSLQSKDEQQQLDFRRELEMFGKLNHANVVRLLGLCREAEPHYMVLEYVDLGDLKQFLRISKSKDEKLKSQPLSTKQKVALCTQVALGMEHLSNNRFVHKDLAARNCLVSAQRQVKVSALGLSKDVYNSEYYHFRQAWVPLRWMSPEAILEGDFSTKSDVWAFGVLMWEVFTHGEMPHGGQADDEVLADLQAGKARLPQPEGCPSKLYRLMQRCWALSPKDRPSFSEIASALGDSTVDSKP
Procedure: The binding activity of anti-PTK7 antibodies to cancer cell lines was verified by flow cytometry. […] Purified anti-PTK7 antibody with a concentration of 5 μg/mL was added to each well and was incubated at 4° C. for 30 minutes. […] The cells were collected, and the mean fluorescence intensity (MFI) was determined. Human IgG1 was used as ISO control.

[2] = molecular target: T2, His-tagged human PTK7 protein (human, UniProt Q13308 31-704); assay: BLI Octet binning on hPTK7-His; competitor 2A5
T2 construct: Bought protein; also called hPTK7-His; not shown: His tag
T2 sequence: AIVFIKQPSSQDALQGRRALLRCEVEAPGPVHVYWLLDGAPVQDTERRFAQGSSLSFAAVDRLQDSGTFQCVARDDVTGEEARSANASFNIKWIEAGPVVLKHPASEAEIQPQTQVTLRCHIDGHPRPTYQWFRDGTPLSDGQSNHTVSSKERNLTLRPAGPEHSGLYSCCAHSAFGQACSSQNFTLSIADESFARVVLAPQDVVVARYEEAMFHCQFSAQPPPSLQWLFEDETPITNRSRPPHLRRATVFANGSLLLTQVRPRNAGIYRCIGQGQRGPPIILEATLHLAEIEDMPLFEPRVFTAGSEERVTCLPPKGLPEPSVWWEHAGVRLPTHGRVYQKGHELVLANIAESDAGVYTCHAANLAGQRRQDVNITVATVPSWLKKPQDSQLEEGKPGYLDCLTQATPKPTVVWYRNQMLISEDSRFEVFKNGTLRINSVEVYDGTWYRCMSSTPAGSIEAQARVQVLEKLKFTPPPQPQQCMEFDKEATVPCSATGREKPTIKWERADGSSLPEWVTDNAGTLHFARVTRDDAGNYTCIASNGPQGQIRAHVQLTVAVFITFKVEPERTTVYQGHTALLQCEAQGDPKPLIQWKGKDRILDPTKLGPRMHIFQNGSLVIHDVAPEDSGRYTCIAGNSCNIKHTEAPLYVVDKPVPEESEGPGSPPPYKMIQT
Procedure: Relative positions of target protein epitope between a pair of purified anti-PTK7 antibodies were analyzed by Biolayer Interferometry (BLI) using ForteBio Octet system at 30° C. A total of […] purified antibodies were used: 1A7, 1A11, 1F2, 2A5, 2D11, 2F5, 3C4 and 3E6.
1×HBS-EP+ buffer (10 mM 4-(2-hydroxyethyl)-1-piperazineethanesulfonic acid (HEPES), 150 mM NaCl, 3 mM ethylenediaminetetraacetic acid (EDTA) and 0.05% P20, pH7.4) diluted from HBS-EP+ buffer (10×) was used as the running buffer throughout the experiment. His-tagged human PTK7 protein was captured at a flow rate of 10 μL/min, and 200 nM of antibody (Analyte 1) was injected at a flow rate of 30 μL/min to bind the ligand. Another antibody (Analyte 2) was injected under the same conditions to determine whether the binding of different antibodies interfered with each other. The binding time was 300 s for each antibody.
The binding value of each antibody was obtained using Data Analysis HT 12.0. To quantify the interference of one antibody binding to another, a binding ratio was calculated to compare each pair of antibodies. The binding ratio is defined as the binding value of the second antibody (Analyte 2), divided by the binding value of the first antibody (Analyte 1). […] In general, antibody pairs that interfere with each other have the same or overlapping epitopes.

| Binder | MFI [1] | binding ratio [2] |
| --- | --- | --- |
| B1 | 167000 | 0.93 |
| B2 | 193000 | 0.81 |
| B3 | 94900 | 0.71 |
| B4 | 152000 | 0.75 |
| B5 | 80200 | 0.1 |
| B6 | 141000 | 0.05 |
| B7 | 180000 | 0.15 |
| B8 | 80900 | 0.12 |
